# Measurements as given in patent publication US20240360242A1 (KISOJI BIOTECHNOLOGY, published 2024).
# Positions count from the first letter of the chain named.
# T1: recombinant human TROP2 extracellular domain (aa 1-274) comprising His tag (human, UniProt P09758 27-274)
# T1 construct: Used here for all assays on recombinant human TROP2 (ELISA, immunoblot, SPR, crystal), although only some of them name the catalogue number; also called human recombinant TROP2; recombinant human TROP2 protein; not shown: His tag
# T1 sequence: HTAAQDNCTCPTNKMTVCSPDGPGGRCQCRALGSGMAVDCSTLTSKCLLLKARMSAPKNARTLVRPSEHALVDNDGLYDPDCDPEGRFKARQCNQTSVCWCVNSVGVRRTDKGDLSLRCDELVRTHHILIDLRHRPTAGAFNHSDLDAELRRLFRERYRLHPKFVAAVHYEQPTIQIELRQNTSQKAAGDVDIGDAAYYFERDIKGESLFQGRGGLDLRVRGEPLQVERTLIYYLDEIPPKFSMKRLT
# B1: KD054 (antibody, V domains shown)
# VH: QVQLQESGGGLIQPGGSLRLSCAASGFTFSGSDMSWVRQAPGKGLEWVSYITSGGTTYYADTVKGRFTISRDNSKNTLYLQMNSLRAEDTAVYRCAKSRLTDSHYVEDAWGQGTLVTVSS
# notes: KD005 humanized variant
# B2: KD043 (antibody, V domains shown)
# VH: B1 VH with Q1E, Q5L, I12V, Y50A, R94Y
# notes: KD005 humanized variant
# B3: KD044 (antibody, V domains shown)
# VH: B1 VH with Q1E, Q5L, I12V, R94Y
# notes: KD005 humanized variant
# B4: KD045 (antibody, V domains shown)
# VH: B1 VH with Q1E, Q5L, I12V
# notes: KD005 humanized variant
# B5: KD046 (antibody, V domains shown)
# VH: B1 VH with Q5L, I12V, L45P, R94Y
# notes: KD005 humanized variant
# B6: KD050 (antibody, V domains shown)
# VH: B1 VH with I12V, L45P, A60P, R86K, A87P, E88D, L115Q
# notes: KD005 humanized variant
# B7: KD052 (antibody, V domains shown)
# VH: B1 VH with Q1E, Q5V, Y50V, R94Y
# notes: KD005 humanized variant
# B8: KD055 (antibody, V domains shown)
# VH: B1 VH with Q1E
# notes: KD005 humanized variant
# B9: KD056 (antibody, V domains shown)
# VH: B1 VH with Q5V
# notes: KD005 humanized variant
# B10: KD057 (antibody, V domains shown)
# VH: B1 VH with Y50V
# notes: KD005 humanized variant
# B11: KD030 (antibody, V domains shown)
# VH: QVQLQESGGGLVQPGGSLRLSCAASGFPFSSADMSWVRQAPGKGLEWVSYINADGSKTYYADTVKGRFTISRDNSKNTLYLQMNSLRAEDTAVYRCARAKLTDTHYVEDYWGQGTMVTVSS
# notes: KD002 humanized variant
# B12: KD021 (antibody, V domains shown)
# VH: B11 VH with Q1E, Q5V, Y59S, S75A, R95Y, M116L
# notes: KD002 humanized variant
# B13: KD022 (antibody, V domains shown)
# VH: B11 VH with Q1E, Q5V, L45P, S75A, R95Y, M116Q
# notes: KD002 humanized variant
# B14: KD023 (antibody, V domains shown)
# VH: B11 VH with Q5V, L45P, A61P, S75A, R95Y, M116Q
# notes: KD002 humanized variant
# B15: KD024 (antibody, V domains shown)
# VH: B11 VH with Q5V, L45P, A61P, S75A, M116Q
# notes: KD002 humanized variant
# B16: KD025 (antibody, V domains shown)
# VH: B11 VH with Q5V, P14V, L45P, A61P, S75A, R87K, A88P, M116Q
# notes: KD002 humanized variant
# B17: KD026 (antibody, V domains shown)
# VH: B11 VH with L11M, P14V, L45P, A61P, S75A, R87K, A88P, M116Q
# notes: KD002 humanized variant
# B18: KD027 (antibody, V domains shown)
# VH: B11 VH with L11M, P14V, L45P, A61P, T63S, S75A, R87K, A88P, M116Q
# notes: KD002 humanized variant
# B19: KD028 (antibody, V domains shown)
# VH: B11 VH with Q1E, Q5L, Y50V, R95Y
# notes: KD002 humanized variant
# B20: KD029 (antibody, V domains shown)
# VH: B11 VH with L45P, A61P, S85N, V93L
# notes: KD002 humanized variant
# B21: KD031 (antibody, V domains shown)
# VH: B11 VH with Q1E
# notes: KD002 humanized variant
# B22: KD032 (antibody, V domains shown)
# VH: B11 VH with Q5L
# notes: KD002 humanized variant
# B23: KD033 (antibody, V domains shown)
# VH: B11 VH with Y50V
# notes: KD002 humanized variant
# B24: KD034 (antibody, V domains shown)
# VH: B11 VH with R95Y
# notes: KD002 humanized variant
# B25: KD035 (antibody, V domains shown)
# VH: B11 VH with L45P
# notes: KD002 humanized variant
# B26: KD036 (antibody, V domains shown)
# VH: B11 VH with A61P
# notes: KD002 humanized variant
# B27: KD037 (antibody, V domains shown)
# VH: B11 VH with S85N
# notes: KD002 humanized variant
# B28: KD038 (antibody, V domains shown)
# VH: B11 VH with V93L
# notes: KD002 humanized variant
# B29: KD039 (antibody, V domains shown)
# VH: B11 VH with L11M, M116Q
# notes: KD002 humanized variant
# B30: KD040 (antibody, V domains shown)
# VH: B11 VH with G44Q, L45R
# notes: KD002 humanized variant
# B31: KD041 (antibody, V domains shown)
# VH: B11 VH with D54E
# notes: KD002 humanized variant
# B32: KD042 (antibody, V domains shown)
# VH: B11 VH with D54N
# notes: KD002 humanized variant
# B33: KD047 (antibody, V domains shown)
# VH: B1 VH with Q5L, I12V, L45P
# notes: KD005 humanized variant
# B34: KD048 (antibody, V domains shown)
# VH: B1 VH with I12V, L45P, A60P, R94Y, L115Q
# notes: KD005 humanized variant
# B35: KD049 (antibody, V domains shown)
# VH: B1 VH with I12V, L45P, A60P, L115Q
# notes: KD005 humanized variant
# B36: KD051 (antibody, V domains shown)
# VH: B1 VH with I12V, L45P, A60P, S74A, R86K, A87P, E88D, V92L, L115Q
# notes: KD005 humanized variant
# B37: KD053 (antibody, V domains shown)
# VH: B1 VH with L45P, A60P, E88D, V92L
# notes: KD005 humanized variant
# B38: KD058 (antibody, V domains shown)
# VH: B1 VH with R94Y
# notes: KD005 humanized variant
# B39: KD059 (antibody, V domains shown)
# VH: B1 VH with L45P
# notes: KD005 humanized variant
# B40: KD060 (antibody, V domains shown)
# VH: B1 VH with A60P
# notes: KD005 humanized variant
# B41: KD061 (antibody, V domains shown)
# VH: B1 VH with E88D
# notes: KD005 humanized variant
# B42: KD062 (antibody, V domains shown)
# VH: B1 VH with V92L
# notes: KD005 humanized variant
# B43: KD063 (antibody, V domains shown)
# VH: B1 VH with Q13E, L115Q
# notes: KD005 humanized variant
# B44: KD064 (antibody, V domains shown)
# VH: B1 VH with V37Y, L45R
# notes: KD005 humanized variant with framework 2 changes
# Target: T1, recombinant human TROP2 extracellular …
# Test: ELISA, coated rh TROP2, normalized to KD005
row,Binder,EC50 relative to KD005
1,B1,0.93 ratio to KD005
2,B2,1.01 ratio to KD005
3,B3,0.9 ratio to KD005
4,B4,1.01 ratio to KD005
5,B5,0.9 ratio to KD005
6,B6,1.12 ratio to KD005
7,B7,0.93 ratio to KD005
8,B8,1.12 ratio to KD005
9,B9,1.21 ratio to KD005
10,B10,1.15 ratio to KD005

# Target: T1, recombinant human TROP2 extracellular …
# Test: ELISA, coated rh TROP2
# Procedure: (§1) Human TROP2 recombinant proteins were coated on 96-well ELISA plates at the concentration of 1 μg/mL. Plates were covered with adhesive plate cover and stored at 4° C. overnight. The next day, plates were washed 3× with washing buffer (PBS with 0.1% Tween™ 20). Plates were blocked with 2% fat-free BSA in washing buffer for 1 hour at 37° C. During the incubation time, the TROP2 reference antibodies, as well as the humanized variants, were diluted in the blocking buffer to the indicated concentrations. […] After blocking, the blocking buffer was removed from the wells and 100 μL of anti-TROP2 sdAbs dilutions were transferred to the corresponding wells. Plates were covered with adhesive plates cover and incubated at 37° C. for 1 hour. During the primary antibody incubation, the secondary antibody (goat anti-human IgG, HRP conjugated) was diluted 1 in 5000 with the blocking buffer. Plates were washed 3× with blocking buffer, followed by secondary antibody incubation for another 1 hour at 37° C. After the secondary antibody incubation, plates were washed 3× with washing buffer and added with 100 μL of ELISA chemiluminescent substrate (Thermofisher). The luminescence signal was detected by SpectraMax i3x at […].
row,Binder,EC50
1,B11,0.12 nM
2,B12,4.3 nM
3,B13,0.07 nM
4,B14,0.08 nM
5,B15,0.09 nM
6,B16,0.11 nM
7,B17,0.1 nM
8,B18,0.09 nM
9,B19,0.14 nM
10,B20,0.16 nM
11,B21,0.11 nM
12,B22,0.15 nM
13,B23,0.13 nM
14,B24,0.13 nM
15,B25,0.12 nM
16,B26,0.13 nM
17,B27,0.18 nM
18,B28,0.26 nM
19,B29,0.15 nM
20,B30,0.05 nM
21,B31,0.15 nM
22,B32,0.07 nM

# Target: T1, recombinant human TROP2 extracellular …
# Test: ELISA, coated rh TROP2
# Remark: another data set of the same source
# Procedure: as §1
Binder,EC50,EC50% to KD005
B1,0.07 nM,0.875 ratio to KD005
B2,0.09 nM,1.12 ratio to KD005
B3,0.08 nM,1 ratio to KD005
B4,0.09 nM,1.12 ratio to KD005
B5,0.08 nM,1 ratio to KD005
B33,0.14 nM,1.75 ratio to KD005
B34,0.11 nM,1.38 ratio to KD005
B35,0.14 nM,1.75 ratio to KD005
B6,0.1 nM,1.25 ratio to KD005
B36,0.12 nM,1.5 ratio to KD005
B7,0.07 nM,0.875 ratio to KD005
B37,0.1 nM,1.25 ratio to KD005
B8,0.08 nM,1 ratio to KD005
B9,0.09 nM,1.12 ratio to KD005
B10,0.09 nM,1.12 ratio to KD005
B38,0.1 nM,1.25 ratio to KD005
B39,0.1 nM,1.25 ratio to KD005
B40,0.11 nM,1.38 ratio to KD005
B41,0.12 nM,1.5 ratio to KD005
B42,0.14 nM,1.75 ratio to KD005
B43,0.12 nM,1.5 ratio to KD005
B44,0.14 nM,1.75 ratio to KD005
